Data on 18 sequences can be found in a protein production outcome set (Wang et al. 2014).

A short description of this data set: label from the status in PepcDB records.
“MNSFLIIIFRLYLPISVAILTGVLLSFSLEKLQGNFSKNKHLSLVVPNYLGKFLFWFGVPLGVINFVHKANLSGGIWLSPIVAWGAVVLGIFLSWLWVQTLFPKPSLAFQTSFTLVSTVGNTSYIGFPIILLLPQLGPDYFGWAILYDLLGTFLAAYGLGSILASRSLLTNPNKIISFGLDSPVFPINQKTITDHIKSSILKIFQWLKNNLVILVKNPTLIAFIIGLILRPIVFPPWLDISLGWFAWSIIMLSLILMGMRLQQLDSWGNIKIAFSAVSIKMLLVPLVIAMALTTAGLSGPPRLVLVLQSSMPSAFASLILAEAYDLDRDLVVTCLGLSSLMLFFTLPFWLWGFTTW”: the protein production entry is “failed”.
The same measure for “MSIRIKLPDGSVREFEEEASIEDVAASISCGLEHAVAGKLNGKLVDLSTPLQDGALVEIVTRDSAEGQKIVREKSRGKGRIVALDAARGLAVIGMYLQHFALNETNGSIVSGNTTLLFVLCGGISYSIMAGRMMDRGMEPAAFRTRMLARAVFIDMIGYLLIMLNTPFGVILPAYAALFVLALVLIRRSTRVLVTTAAVLLAVSPPLMILGGSVLSGANLLGDIAGGPMSALALAPAFVAGMAIGRFDLTRMRTALSLVSSGAVMLIVSKLLGVFVLPWLSRSFEEWLVSVQGTAGAEPDQYAIWPHNVAPPLWHNLLSIAPHSASTFQTMLGLGAAFLVLGMVCLVPQKISAVLKPFAGVGRVALTMYAAQFVVIWALEISGAKYDIGAIPFGDLFVAAVATVTGWLIARLPTGPLETAMRRFDRAFSNLGPVTGPARLR”: “failed”.
As for “MAGTNSERELLTEGPAIILAFPQLGENIGMVARAMANFGLSELRLVSPRDGWPSEKARSAASRADHVIDGAKLYETLEEALADLNFVYATTARDRDGFKPVRSPIVAARELRHRFKEGEKVGIIFGRERTGLTNAEVALADEIVTFPVNPAFASLNLAQAVLLMSYEWLKTGMTSEDETSFQASQQRPATKEQLHGLCEHLEEA”, the protein production result is listed as “failed”.
Consider “MAASAHGSVWGPLRLGIPGLCCRRPPLGLYARMRRLPGPEVSGRSVAAASGPGAWGTDHYCLELLRKRDYEGYLCSLLLPAESRSSVFALRAFNVELARVKDSVSEKTIGLMRMQFWKKTVEDIYCDNPPHQPVAIELWKAVKRHNLTKRWLMKIVDEREKNLDDKAYRNIKELENYAENTQSSLLYLTLEILGIKDLHADHAASHIGKAQGIVTCLRATPYHGSRRKVFLPMDICMLHGVSQEDFLRRNQDKNVRDVIYDIASQAHLHLKHARSFHKTVPVKAFPAFLQTVSLEDFLKKIQRVDFDIFHPSLQQKNTLLPLYLYIQSWRKTY”, for which the protein production result was “failed”.
Regarding “MSDYLDMLASFGVSSAHPGGMSLSKAVLAKAGIDPEQPILDAGCGTGQTAAYLGQLLFPVTALDADPVMIDKARQRFKKEQLSIPAVRSPLEEMPFQSESFACVLTESVLSFTNIRSALQEIRRILKPGGMLVAIEVCLKEGNALTDEAKKEITEFYGFTALYDEDEWVNVLREEGFSKIDIIPVVLEDAGDPDDAVEMDLSPAISDKDYETMEKHLHYLEKYRDSLDHIIFISHL”, the protein production entry is on record as “failed”.
For the sequence “MKVVERYIMRRAFVVFLAALVWTLAIVWTTQVLAKIDLVTDSGQSSLTFFEVAALILPSIIPIVVPFALVVAVAQTLSVMNSDSELVVVNAAGASRWTIVRPIMLLALAASVFSFAVDNGIDPYARQKNRALVAQSRADLLSLIIQEGTFRKIEDGLFLQIGERLPDNRLGGIFVADSREEGVNLVYYAKTGSVVERGGEKVLMMNDGVIHRKTLTGDLSVIRFTSYAFDMSAFMAAASEVTLLPKDQTTQYLLNPNVNDKLYQQAPQQYRAEIDQRFSEWLYSMVFALIALAVAGDARSHREARVNPLITAITISLFVRWLGFFAASKADEVPQYAYMVYGVPIVASAVAIWFIVSNRTMELPVAWADWMTNLASRVGDGWNALKLRWSRRGTSGQGIG”, the protein production entry is recorded as “failed”.
To “MALINLNHTDDGYDAYDACPARSVQQETAVGAGAQILLLALLGTAIGMGTAGWLTGLAFAFASWAVLSRALHRSRLPSFGPANRVTLGRATLVGGVTALVADSFRSAPPLSLLVGLTAVALILDGVDGRVARRTGTSTPLGARFDMEVDAFLILVLSVYVALDLGPWVLLIGGMRYVFVAAARVWPWLTAPLPPSTARKTVAALQGVLLLLAGAELLPRPGNAGVVAVALGLLVWSFGRDVRWLWRRSRVPAAPVTAVRELVAQ” belongs “failed”.
For “MGGNRQQEIASGCCLVAEQHDQVVAYASYQPTGLLGQPLLTYLCVAPAMRGQGIAKQLVETIQGQARGRMLLSSTEDWCLASQKIFTDLGWRKIGALAGVNKDGSTEYFYAVDLNH”, the protein production entry is given as “failed”.
As to “MRSAGEPRWVVPILASPLLWHAARFALVSAYLLGGVVKLFDFAAAVAEQERFGLHPGWLWATLAIVVELGGSLLVLADRLVWLGAGALGVLTFVAMLTANAFWSAPAADRWIQANAFFEHFGLIAGFVLLAMLSDQRRSTS”, the protein production entry is recorded as “failed”.
As to “MYREFYGLTEKPFSKTPDPRYLFLSRGHREALARLQYAVEERELALLTGDIGCGKTTISRALMDAVGNDGCFCFIVNPRLSAVEFLRTVARSLGIAEPAAAKDELLRQLTEAVYRLEGEKRCPVIIIDEAQLIPDQEVFDEIRLLTNFQLDDRNLMSVILMGQPELRQILSEPAHEALRQRIAMHYHLQPLSLEETLEYVDFRVEVAGGPQGLFSPDAIRRIYELSGGVPRKINILATNALLVGFGKDSAWIDASLVEELRDEASLYLEHHHHHH”, the protein production entry is given as “failed”.
Turning to “MSTKDKYDILNLCFYEKEAIMANVLFLVGSLRDGSFNHQMAKKAEAFLTDKAQVSYIDLAKIPLFNQDIETPILPEIAELRAQVDAADAIWIFSPVYNYAIPGIVKNALDWLSRSLDLSNPKGPSILQDKITTVSAVANSGHDHLFKDFQHLLPFIRTQIAGEFTGSTINPEAWGTGVLELSDETLTKLEQQVADLLAAIQ”, the protein production entry is listed as “failed”.
For “MHATQAILQGLRPVWTRPARLILTTPMSTTPPVPSPLQRGTLKQRRNTLPKRSNRHRDGRVYYANLAATMIARDNLRAAQIILAESHRRHPAFCDTRLMEAGVHLSLGRSDAAEAALRICHEAEPDEQRAVSGLVEIALERADATTARQLLEDQPQTPTFDLARARIALFNGDPSAARTFLDAHPAEGSTTVLAAFADAMEGDLDTAIARLNAQANRTDAALALAALQAAAGVVPDAAPSSPTASFFTALNPAANDDRRAALNAAEGFEQGFTAAGLDAVPQGSPDLALGVVFRLWGFHGAALERLVAASNDDPENPLAAYFVAVAHLKLGQNAQAEAALAKARTAAPSFFAANIAAAELRIRAGAPQEALAMLKAAVAVREDPGALMRIGLIEESFGDDDTARAAYERFVAVQPGSYIGYNQLAWHLARRGIELDRAQELAERANTLQPENASVLDTLGWIAFLRGDGAGAIERLRAAHEISQGDIPIISFHLAQAELKYGETPRGIALLQDLTAAGPAAYPFSQEATDILAKALQ”, the protein production entry is “failed”.
The same measure for “MKFAIITDVHGNFDALQTVLDDIDNREDIDKIYNLGDNIGIGHETNKVLDTIFDRDDMEIIAGNHDEAVMSLVNNTPYPEDLKDKFYEHHQWIESHMDEDYYDQLNLLPRYIEKTICGKKLLFIHYEIENQKLETGIEGQPFSPITENSKENIIELFKDKDADLIAFGHNHQMHLYDDNKTIYFNPGAVGLNNGANAVYGIVTINDNEFSIERIKLPYDNEEYLQGFDEKQVPAKQLIFEHFL”: “failed”; for “MSKEPIIKLDNIDVTFHQKKREINAVKDVTIHINQGDIYGIVGYSGAGKSTLVRVINLLQEPSAGKITIDDQVIYDNKVTLTSTQLREQRREIGMIFQHFNLMSQLTAEQNVAFALKHSGLSKEAKAAKVAKLLELVGLSDRAQNYPSQLSGGQKQRVAIARALANDPKILISDESTSALDPKTTKQILALLQDLNKKLGLTIVLITHEMQIVKDIANRVAVMQNGKLIEEGSVLDIFSHPRESLTQDFIKIATGIDEAMLKIEQQEVVKNLPVGSKLVQLKYAGHSTDEPLLNQIYKEFEVTANILYGNIEILDGIPVGEMVVILSGDEEKLRQACQAITDSQVQLTLLKEGGKA”: “failed”; for “MKESSTLLQNLARSLPRLNMGILLGLALLLFATLYWTLERLFDEQNSNVRLHFAQLMENIQEQELFLKRLAARHSIDALSLDAPHHLNLQAFPPTAGQQSPFATPFSLSLSPQQPAAGELPRVFALGLQLSSFYSAFWSGSQHVAPRTFVFKTFGHFDISHPEGNTAPDIGVADQVLHQQLVKSDGFADHQIHWQQYRPPASEALPTRFLAYINLHEPAPPLDVQGGNDWSVVASLLSLDDLNHLEHTRHWSIYDDFTLIEPSGTALTGDPAPADVLGEGLNFGLQGMIVKVTSQTPQLWTGLYAISYRNYLDYALWAMLSLLALGVGSIACGWAASRWYRNKVVVPAQRAQQCLNESEDFNRVVIDTVPSGLCVVSRDNLQVILQNRQAEQWQGTAQLLSRLAQDRSLIDGGETSLDIDGRYLQVEFVSTRYQRQDVLVCTFNDVTRHVEDARALDRARRSADAANAAKTLFLATMSHEIRTPLYGVLGTLELLGLTRLDSRQSDYLQTIQRSSSTLFQLISDVLDVSRIEAGQMSIDPLEFCPLDMLEDVLHAHAASAQRRGLLFYACIDPNLPDLLLGDAARISQILNNLLSNAIKFTESGRVVLRVRLLELRDQQARIEWQVTDTGIGISAQQQPQLFVPFFQVRDASNEAGAGLGLAICERLCQMMGGQMQVTSEPGLGSSFSLRLTLRCLPGGLPPLLPWPEGSPVYVRAPVPELLKNTCDWLGRLGVPAHPPPPGWSDEPQTGVLIDMLPRDGLASWPGPCVSAVSGGGSGRLPQATSWQVDAHDIRAIAQAAVLAHQGLPLYQAQHRAGRMGQLNLRILVAKHSPINQAIIKEQLQALGCQVTLSANGKQALEHWQPQRFDIVITDVNMPLMNGYELARELRRRDPQLPIIGVTANALREEGIRCLAAGMNTWIVKPMNLQTLRGHLSKLCPTSTATAAPSIPPAAPSRPPPDTAQGDRIQVTEKMRPLFLSTMHEDLRRLAEALDSGAGKIAAARLHSIAGAMGAVQAAPLAKACAELECRLLEGALTADLQAQARQLMQRLSRLLLPLE”: “failed”.
Regarding “KPKDIKYVVEESKFKDLREILEFMLKDAVQKLDMFLDMLNYSKPKVDVGDEVIEIKKDNVIEALKLFKDEYEVSKKHIPVPVYTYLIKRNILFLNPIEGILKPQSYLVWNAIKRLL”, the protein production result is given as “failed”.
With “MVSLPRLASLLTTRLATLKPALKPATHLASLGAQVIAELVPGIRMSPNRRRILPANMGAGFIGAEIAMWWALSPSLLPKPWWVTAANLAVLQAVGHAAATGIHSILPRTNRRVSRKIYNATHIATGAITLTTTVVGLIRHRTQIRLIGQKNFGPKETIAGISVGTLGYGALLITGELTQHSINEVKLLIERFLPPWISFIAAVSVITLTTLTLADRVLLRRILHNSAIQAAHLNRMVFPGTEQPWEPERSGSPWSYEKWGAVGSQGRAVLSGGPRKDDIITVTRLSDTETHEPIRIFIGMVPGRSLSDQVDLVIHEMRRTGALRRDHIVINNSTGTGWITDWSAHTFEFLTGGNCVTISMQYSYLPSALSWYKDNDGPINAARMLIDAVLHELDQLPTGSRPKLFLAGESLGAYGLAEVWGDVEKLLGTADGVLLSGAPRFSDAMNALRTRRDASSSERLPVIDSGRHIRFAGEPEHLDMPATWQFPRMIVAQHASDPIVWWNAELFIRRPEWLKTPKQDHQDVFPRLRWMPFVTGWQVALDLFTSTSVPGGHGHNYHEEFIDYWAALLDREVTPELRHSIAYWIRANHIKR”, the protein production entry was “failed”.
Consider “MKASFKGKFDVDKSGSVASLTFNAGNAKLRATMTDASFVAGPSFNGLSLAVEKPGFFIIDYNVPKKDVRFQFMNTIRIAEKPLNLTYIHMRGDNRTIVDGSFVIDPANKLSANYMVGTKNCKLKYTYVHGGIATFEPCYDVAKNMWDFAISHKLYGGDNLKATYQTSSKMLGLEWSNNSKSTGSFKVCASMNLAEELKPPKLTAETTWNLEL”, for which the protein production entry is “not failed”.
